Data published in article PMC3660597, “Investigation of Specificity Determinants in Bacterial tRNA-Guanine Transglycosylase Reveals Queuine, the Substrate of Its Eucaryotic Counterpart, as Inhibitor” (PLoS ONE, 2013).
Changes are numbered by the printed parent chain. Numbers in names are those of the source.

B1: Z. mobilis Tgt ("wild type" Tgt = Tgt(Tyr106Phe)) (Zymomonas mobilis subsp. mobilis ZM4 = ATCC 31821; V233G/Y106F) (protein)
chain: VEATAQETDRPRFSFSIAAREGKARTGTIEMKRGVIRTPAFMPVGTAATVKALKPETVRATGADIILGNTYHLMLRPGAERIAKLGGLHSFMGWDRPILTDSGGFQVMSLSSLTKQSEEGVTFKSHLDGSRHMLSPERSIEIQHLLGSDIVMAFDECTPYPATPSRAASSMERSMRWAKRSRDAFDSRKEQAENAALFGIQQGSVFENLRQQSADALAEIGFDGYAVGGLAGGEGQDEMFRVLDFSVPMLPDDKPHYLMGVGKPDDIVGAVERGIDMFDCVLPTRSGRNGQAFTWDGPINIRNARFSEDLTPLDSECHCAVCQKWSRAYIHHLIRAGEILGAMLMTEHNIAFYQQLMQKIRDSISEGRFSQFAQDFRARYFARNS
notes: recombinant from pET9d-ZM-Y106F in E. coli BL21(DE3)/pLysS, purified; homodimer; all variants including "wild type" carry Tyr106Phe
B2: Z. mobilis Tgt ("wild type" Tgt = Tgt(Tyr106Phe)) (Zymomonas mobilis subsp. mobilis ZM4 = ATCC 31821; C158V/Y106F) (protein)
chain: B1 chain with C157V, G232V
notes: as for B1
B3: Z. mobilis Tgt ("wild type" Tgt = Tgt(Tyr106Phe)) (Zymomonas mobilis subsp. mobilis ZM4 = ATCC 31821; C158V/V233G/Y106F) (protein)
chain: B1 chain with C157V
notes: as for B1
B4: Z. mobilis Tgt ("wild type" Tgt = Tgt(Tyr106Phe)) (Zymomonas mobilis subsp. mobilis ZM4 = ATCC 31821; Y106F) (protein)
chain: B1 chain with G232V
notes: as for B1

substrate: Nc1nc2nc[nH]c2c(=O)[nH]1; test: purified protein; type: biochemical, Zymomonas mobilis; conditions: 15 µM E. coli tRNA(Tyr), 200 mM HEPES pH 7.3, 20 mM MgCl2, 37°C, labelled compound

Protein	Km	kcat
B1	1.0 ± 0.2 µmol/L	0.0046 ± 0.0003 s⁻¹
B2	1.4 ± 0.2 µmol/L	0.0275 ± 0.0002 s⁻¹
B3	2.7 ± 0.3 µmol/L	0.0006 ± 0.0001 s⁻¹
B4	1.2 ± 0.2 µmol/L	0.0558 ± 0.0001 s⁻¹

substrate: NCc1c[nH]c2nc(N)[nH]c(=O)c12; test: [3H]-preQ1 incorporation into tRNA(Tyr), scintillation counting; type: biochemical, Zymomonas mobilis; conditions: 15 µM E. coli tRNA(Tyr), 200 mM HEPES pH 7.3, 20 mM MgCl2, 37°C, labelled compound
Excerpt: [3H]-preQ1 incorporation into tRNA(Tyr), scintillation counting on Z. mobilis Tgt ("wild type" Tgt = Tgt(Tyr106Phe))

Protein	Km	kcat
B1	0.6 ± 0.1 µmol/L	0.0063 ± 0.0002 s⁻¹
B2	16.0 ± 2.4 µmol/L	0.035 ± 0.0008 s⁻¹
B3	13.5 ± 3.1 µmol/L	0.001 ± 0.0003 s⁻¹
B4	0.9 ± 0.1 µmol/L	0.106 ± 0.0027 s⁻¹
